Reference: patent publication US20260109776A1 (Amgen, published 2026)
Read-outs that look alike come from different tables or passages of the source.

T1: cynomolgus monkey CD40 (cynomolgus monkey, UniProt P25942 21-193 (human entry), limits assumed)
T1 chain: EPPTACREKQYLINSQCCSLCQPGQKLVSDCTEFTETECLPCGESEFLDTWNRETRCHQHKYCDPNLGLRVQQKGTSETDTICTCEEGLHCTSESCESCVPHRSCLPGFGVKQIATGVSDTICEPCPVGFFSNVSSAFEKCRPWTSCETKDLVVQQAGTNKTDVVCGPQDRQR

T2: mouse CD40 on cells (mouse, UniProt P27512 20-289)
T2 construct: whole, on cells; also called mouse CD40 on HEK293 cells; CD40 on mouse B cells
T2 sequence (looked up): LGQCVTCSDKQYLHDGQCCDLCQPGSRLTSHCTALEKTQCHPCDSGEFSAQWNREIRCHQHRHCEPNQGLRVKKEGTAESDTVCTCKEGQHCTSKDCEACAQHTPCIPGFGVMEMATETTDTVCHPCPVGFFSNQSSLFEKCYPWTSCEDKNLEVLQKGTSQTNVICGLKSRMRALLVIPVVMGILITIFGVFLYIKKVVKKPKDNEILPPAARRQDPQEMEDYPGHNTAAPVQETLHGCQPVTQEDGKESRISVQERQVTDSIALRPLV

T3: human TNFR1 (human, UniProt P19438 30-455)
T3 construct: whole, on cells
T3 sequence (looked up): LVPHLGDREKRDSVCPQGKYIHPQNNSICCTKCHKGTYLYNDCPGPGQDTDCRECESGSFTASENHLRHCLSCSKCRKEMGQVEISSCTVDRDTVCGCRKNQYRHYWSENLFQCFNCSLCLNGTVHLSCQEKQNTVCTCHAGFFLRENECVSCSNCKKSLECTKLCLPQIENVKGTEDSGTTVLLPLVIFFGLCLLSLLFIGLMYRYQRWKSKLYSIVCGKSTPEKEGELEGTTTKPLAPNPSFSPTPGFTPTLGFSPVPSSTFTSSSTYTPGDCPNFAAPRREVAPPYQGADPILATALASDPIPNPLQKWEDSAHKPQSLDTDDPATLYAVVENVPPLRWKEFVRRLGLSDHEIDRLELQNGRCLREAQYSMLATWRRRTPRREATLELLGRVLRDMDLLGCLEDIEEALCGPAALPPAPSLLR

T4: human TNFR2 (human, UniProt P20333 23-461)
T4 construct: whole, on cells
T4 sequence (looked up): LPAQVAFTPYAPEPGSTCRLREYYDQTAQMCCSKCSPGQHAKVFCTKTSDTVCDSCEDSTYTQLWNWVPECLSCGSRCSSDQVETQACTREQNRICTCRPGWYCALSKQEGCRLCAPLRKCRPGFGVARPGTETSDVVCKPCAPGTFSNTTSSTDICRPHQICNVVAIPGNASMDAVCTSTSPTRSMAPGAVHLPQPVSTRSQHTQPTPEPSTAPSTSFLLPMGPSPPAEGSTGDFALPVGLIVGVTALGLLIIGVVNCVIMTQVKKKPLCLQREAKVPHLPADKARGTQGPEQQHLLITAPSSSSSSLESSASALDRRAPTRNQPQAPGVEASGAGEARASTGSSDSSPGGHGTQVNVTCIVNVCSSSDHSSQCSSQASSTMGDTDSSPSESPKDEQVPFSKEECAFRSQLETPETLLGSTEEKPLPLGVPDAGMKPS

T5: human TNFR14 (human, UniProt Q92956 39-283)
T5 construct: whole, on cells
T5 sequence (looked up): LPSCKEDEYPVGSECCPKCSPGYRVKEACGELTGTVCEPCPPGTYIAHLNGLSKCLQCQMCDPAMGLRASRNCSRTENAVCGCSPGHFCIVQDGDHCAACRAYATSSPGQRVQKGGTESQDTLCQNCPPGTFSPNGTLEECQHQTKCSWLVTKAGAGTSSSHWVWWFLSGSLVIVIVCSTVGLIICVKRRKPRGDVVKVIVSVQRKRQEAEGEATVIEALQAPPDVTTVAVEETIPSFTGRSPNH

B1: 29H10 (antibody, V domains shown)
VH: QVQLVQSGAEVTKPGASVKVSCKASGYTFAGYYMHWVRQAPGQGLEWMGWINPHSGGTNYAQKFQDRVTMTRDTSINTAYMELSRLRSDDTAVYYCARERISMVRGVGHNWFAPWGQGTLVTVSS
VL: DIQMTQSPSSLSASVGDRVTITCRASQDISNNLAWFQQKPGKPPKSLMYAASSLHSGVPSTFSGSGSGTDFTFTISSLQPEDFATYYCQQYNSYPLTFGGGTKVEIRR
notes: also called 4877-1
B2: 33H6 (antibody, IgG4, V domains shown)
VH: QVQLVQSGAEVKKPGASVKVSCKASGYTFPGYYMYWLRQAPGQGLEWMGWINPDSGDTNYAQKFQGRVTMTRDTSISTAFMELSRLRSDDTAVYYCAREKPRYFDSFYYYLMDVWGQGTTVTVSS
VL: DIQMTQSPSSLSASVGDRVTITCRAGQNISRHLNWYQQNPGKAPKVLIHPASSLPSGVPSRFSGSGSGTDFSLTISSLQPEDFGTYFCQQSYSTPPTFGGGTKVELKR
notes: also called 4883-1

How the values were obtained:
human CD40 on cells [1] = biological target: T6, human CD40 on cells (human, UniProt P25942 21-277); experiment: flow cytometry, labelled CD40L on CD40-293T cells, antibody at 20 ug/ml
T6 construct: also called CD40 receptor on human B cells
Experimental: (§1) Percent ligand binding inhibition was calculated as [(CD40L binding gMFI in the absence of anti-CD40)−(CD40L binding gMFI in the presence of anti-CD40)]/(CD40L binding gMFI in the absence of anti-CD40). gMFI: geometric mean fluorescent intensity. All anti-CD40 antibodies show minimal effects on the ability of CD40L to bind to the CD40 receptor (Table 7).
Target sequence in this assay (P25942 21-277 limits assumed): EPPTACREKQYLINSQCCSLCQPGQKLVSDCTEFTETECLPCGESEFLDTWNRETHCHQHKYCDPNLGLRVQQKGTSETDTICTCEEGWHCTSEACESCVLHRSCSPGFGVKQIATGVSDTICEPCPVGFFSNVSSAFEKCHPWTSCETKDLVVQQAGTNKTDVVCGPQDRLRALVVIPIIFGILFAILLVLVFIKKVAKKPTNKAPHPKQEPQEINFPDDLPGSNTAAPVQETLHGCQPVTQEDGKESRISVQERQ

human CD40 on cells [2] = biological target: T6, human CD40 on cells; experiment: cell-based or functional assay
Target sequence in this assay (P25942 21-277 limits assumed): as above

cynomolgus monkey CD40 = biological target: T1, cynomolgus monkey CD40; experiment: Octet
Experimental: (§2) The binding affinity of anti-human CD40 antibodies to human and cynomolgus monkey CD40 was measured by Octet assay (Table 3), quantifying association rate (Kon), disassociation rate (Kdis), and equilibrium binding constant (KD). Cross-reactivity of anti-CD40 antibodies to related TNF receptor superfamily (TNFRSF) members was evaluated by expressing human TNFR1, TNFR2, TNFR10, or TNFR14 on HEK293 cells by transient transfection of expression vectors encoding these genes. Binding of indicated anti-human CD40 antibody to these transfected cells was determined by flow cytometry. […] Cross-reactivity of anti-CD40 antibodies to cynomolgus monkey and mouse CD40 was evaluated by expressing cynomolgus monkey or mouse CD40 on HEK293 cells by transient transfection of expression vectors encoding these genes. Binding of indicated anti-human CD40 antibody to cells overexpressing cynomolgus monkey and mouse CD40 was determined by flow cytometry.

human CD40 = human CD40 (human, UniProt P25942 21-193, limits assumed); experiment: Octet
Experimental: as §2

human CD40 on cells [3] = biological target: T6, human CD40 on cells; experiment: flow cytometry, labelled CD40L on CD40-293T cells, antibody at 2.5 ug/ml
Experimental: as §1
Target sequence in this assay (P25942 21-277 limits assumed): as above

mouse CD40 on cells = biological target: T2, mouse CD40 on cells; experiment: flow cytometry, HEK293 transfectants
human CD40 on cells [4] = biological target: T6, human CD40 on cells; experiment: flow cytometry, labelled CD40L on CD40-293T cells, antibody at 5 ug/ml
Experimental: as §1
Target sequence in this assay (P25942 21-277 limits assumed): as above

human CD40 on cells [5] = biological target: T6, human CD40 on cells; experiment: cell-based or functional assay; remark: listed apart in the source
human TNFR1 = biological target: T3, human TNFR1; experiment: flow cytometry, HEK293 transfectants
Experimental: as §2

human TNFR2 = biological target: T4, human TNFR2; experiment: flow cytometry, HEK293 transfectants
Experimental: as §2

human TNFR14 = biological target: T5, human TNFR14; experiment: flow cytometry, HEK293 transfectants
Experimental: as §2

Sequence of human CD40 (P25942 21-193 limits assumed): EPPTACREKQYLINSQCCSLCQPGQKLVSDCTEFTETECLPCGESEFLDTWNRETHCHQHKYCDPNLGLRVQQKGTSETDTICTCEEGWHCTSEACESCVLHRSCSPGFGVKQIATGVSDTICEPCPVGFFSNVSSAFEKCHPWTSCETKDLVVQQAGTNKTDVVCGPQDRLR

Binder | Ligand Binding Inhibition (%) (human CD40 on cells [1]) | human B cell proliferation, no crosslinking, % Max Activity (human CD40 on cells [2]) | human B cell proliferation, no crosslinking, EC50 (human CD40 on cells [2]) | human B cell proliferation, with protein G crosslinking, % Max Activity (human CD40 on cells [2]) | human B cell proliferation, with protein G crosslinking, EC50 (human CD40 on cells [2]) | Kd (cynomolgus monkey CD40) | koff (cynomolgus monkey CD40) | kon (cynomolgus monkey CD40) | Kd (human CD40) | koff (human CD40) | kon (human CD40) | Ligand Binding Inhibition (%) (human CD40 on cells [3]) | binding result (mouse CD40 on cells) | Ligand Binding Inhibition (%) (human CD40 on cells [4]) | human B cell proliferation, no crosslinking, EC50 (human CD40 on cells [5]) | human B cell proliferation, no crosslinking, Max Fold Change (human CD40 on cells [5]) | human B cell proliferation, with protein G crosslinking, EC50 (human CD40 on cells [5]) | human B cell proliferation, with protein G crosslinking, Max Fold Change (human CD40 on cells [5]) | binding result (human TNFR1) | binding result (human TNFR2) | further results
B1 | -7% | 4.4% | > 16.7 nM | 65.9% | 0.37 nM | 0.39 nM | 0.000244 s⁻¹ | 612000 M⁻¹ s⁻¹ | 0.41 nM | 0.000164 s⁻¹ | 398000 M⁻¹ s⁻¹ | -11% | no binding | -8% | > 16.7 nM | 1.35 fold | 0.235 nM | 18.2 fold | no binding | no binding | binding result (human TNFR14): no binding
B2 | 7% | 6.5% | > 16.7 nM | 73.4% | 0.26 nM | 1.04 nM | 0.000577 s⁻¹ | 556000 M⁻¹ s⁻¹ | 1.34 nM | 0.00068 s⁻¹ | 509000 M⁻¹ s⁻¹ | -8% | no binding | 4% | > 16.7 nM | 1.21 fold | 0.237 nM | 18.2 fold | no binding | no binding | binding result (human TNFR14): no binding
